B1: GST-BRI1-K (receptor, Arabidopsis, UniProt O22476 815-1196, looked up)
chain: REMRKRRRKKEAELEMYAEGHGNSGDRTANNTNWKLTGVKEALSINLAAFEKPLRKLTFADLLQATNGFHNDSLIGSGGFGDVYKAILKDGSAVAIKKLIHVSGQGDREFMAEMETIGKIKHRNLVPLLGYCKVGDERLLVYEFMKYGSLEDVLHDPKKAGVKLNWSTRRKIAIGSARGLAFLHHNCSPHIIHRDMKSSNVLLDENLEARVSDFGMARLMSAMDTHLSVSTLAGTPGYVPPEYYQSFRCSTKGDVYSYGVVLLELLTGKRPTDSPDFGDNNLVGWVKQHAKLRISDVFDPELMKEDPALEIELLQHLKVAVACLDDRAWRRPTMVQVMAMFKEIQAGSGIDSQSTIRSIEDGGFSTIEMVDMSIKEVPEGKL
notes: domain: kinase domain; also called GST BR11-K; kinase domain of BRI1; not shown: GST (glutathione S-transferase) tag
B2: GST-BAK1-K (receptor, Arabidopsis, UniProt Q94F62 247-615, looked up)
chain: AWWRRKKPQDHFFDVPAEEDPEVHLGQLKRFSLRELQVASDNFSNKNILGRGGFGKVYKGRLADGTLVAVKRLKEERTQGGELQFQTEVEMISMAVHRNLLRLRGFCMTPTERLLVYPYMANGSVASCLRERPESQPPLDWPKRQRIALGSARGLAYLHDHCDPKIIHRDVKAANILLDEEFEAVVGDFGLAKLMDYKDTHVTTAVRGTIGHIAPEYLSTGKSSEKTDVFGYGVMLLELITGQRAFDLARLANDDDVMLLDWVKGLLKEKKLEALVDVDLQGNYKDEEVEQLIQVALLCTQSSPMERPKMSEVVRMLEGDGLAERWEEWQKEEMFRQDFNYPTHHPAVSGWIIGDSTSQIENEYPSGPR
notes: domain: kinase domain; also called kinase domain of BAK1; not shown: GST (glutathione S-transferase) tag
B3: GST-BIN2 (enzyme, Arabidopsis, UniProt Q39011 1-380, looked up)
chain: MADDKEMPAAVVDGHDQVTGHIISTTIGGKNGEPKQTISYMAERVVGTGSFGIVFQAKCLETGETVAIKKVLQDRRYKNRELQLMRVMDHPNVVCLKHCFFSTTSKDELFLNLVMEYVPESLYRVLKHYSSANQRMPLVYVKLYMYQIFRGLAYIHNVAGVCHRDLKPQNLLVDPLTHQVKICDFGSAKQLVKGEANISYICSRFYRAPELIFGATEYTTSIDIWSAGCVLAELLLGQPLFPGENAVDQLVEIIKVLGTPTREEIRCMNPHYTDFRFPQIKAHPWHKIFHKRMPPEAIDFASRLLQYSPSLRCTALEACAHPFFDELREPNARLPNGRPFPPLFNFKQEVAGSSPELVNKLIPDHIKRQLGLSFLNQSGT
modifications: phospho-tyrosine 200 (autophosphorylation site of BIN2, detected on GST-BIN2 from E. coli)
notes: Expressed and purified from E. coli; also called wild type GST-BIN2; not shown: GST (glutathione S-transferase) tag
B4: BIN2 fused to the N-terminal half (nYFP) of YFP (enzyme, Arabidopsis, UniProt Q39011 1-380, looked up)
chain: B3 chain
notes: BiFC construct in tobacco cells; also called BIN2-nYFP; not shown: N-terminal half of YFP (nYFP)
B5: GST-BSK1 (enzyme, Arabidopsis, UniProt Q944A7 1-512, looked up)
chain: MGCCQSLFSGDNPLGKDGVQPQPLSQNNHGGATTADNGGSGGASGVGGGGGGGGIPSFSEFSFADLKAATNNFSSDNIVSESGEKAPNLVYKGRLQNRRWIAVKKFTKMAWPEPKQFAEEAWGVGKLRHNRLANLIGYCCDGDERLLVAEFMPNDTLAKHLFHWENQTIEWAMRLRVGYYIAEALDYCSTEGRPLYHDLNAYRVLFDEDGDPRLSCFGLMKNSRDGKSYSTNLAYTPPEYLRNGRVTPESVTYSFGTVLLDLLSGKHIPPSHALDMIRGKNIILLMDSHLEGKFSTEEATVVVELASQCLQYEPRERPNTKDLVATLAPLQTKSDVPSYVMLGIKKQEEAPSTPQRPLSPLGEACSRMDLTAIHQILVMTHYRDDEGTNELSFQEWTQQMKDMLDARKRGDQSFREKDFKTAIDCYSQFIDVGTMVSPTVFGRRSLCYLLCDQPDAALRDAMQAQCVYPDWPTAFYMQSVALAKLNMNTDAADMLNEAAQLEEKRQRGGRGS
notes: also called full-length BSK1; not shown: GST (glutathione S-transferase) tag

How the values were obtained:
[1] = target: T1, MBP-BSU1 (Arabidopsis, UniProt Q9LR78 1-793); assay: in vitro overlay blot, MBP-BSU1 probe, anti-MBP detection
T1 construct: Recombinant fusion used as probe in overlay (far-western) blots and in phosphatase assays; also called BSU1 from E. coli
Protocol: Total protein extracts obtained from Arabidopsis plants (F1) expressing BSU1 -YFP or co-expressing BSU1-YFP and BSK1-myc were immunoprecipitated with anti-myc, and the immunoblot was probed with anti-GFP and anti-myc antibody. […] GST-BSK1 or GST-BSK1 S230A was incubated with GST-BRI1-K or GST for 2 hrs. […] In the presence of BR (+BR), BR binding to the extracellular domain of BRI1 induces dissociation of BKI1 and association and inter-activation between BRI1 and BAKI. Activated BRI1 then phosphorylates BSK1, which in turn dissociates from the receptor complex and interacts with and presumably activate BSU1. BSU1 inactivates BIN2 by dephosphorylating its pTyr200, allowing accumulation of unphosphorylated BZR1/2, likely with help of a phosphatase that is yet to be identified. Unphosphorylated BZR1/2 accumulate in the nucleus and alter the expression of BR-target genes, leading to cellular and developmental responses. While individual representative protein is shown for each function, in Arabidopsis most of these components have about 2 to 5 homologous proteins (paralogs) that can contribute to the same or similar signaling function.
To test interaction of BSU1 with BIN2 or bin2-1 in vitro, a gel blot separating GST, GST-BIN2, GSTbin2-1 was incubated with 20 μg MBP-BSU1 in 5% non-fat dry milk/PBS buffer and washed four times. The blot was then probed with a polyclonal anti-MBP antibody. […]

[2] = target: T1, MBP-BSU1; assay: overlay blot: GST fusions on membrane probed with MBP-BSU1 and anti-MBP antibody
Protocol: To test interaction of BSU1 with BIN2 or bin2-1 in vitro, a gel blot separating GST, GST-BIN2, GSTbin2-1 was incubated with 20 μg MBP-BSU1 in 5% non-fat dry milk/PBS buffer and washed four times. The blot was then probed with a polyclonal anti-MBP antibody. In the case of BSU1 overlay to BSK1, GST-BRI1-K, GST-BAK1-K and GST-BSK1 were separated by SDS-PAGE. To prepare phosphorylated BSK1, GST-BSK1 was incubated with GST-BRI1-K and 100 μM ATP in the kinase buffer for 2 hrs before SDS-PAGE. The blot was sequentially probed with MBP-BSU1 and a monoclonal anti-MBP antibody (New England Biolab, Beverly, Mass.).

[3] = target: T2, BSL1 fused C-terminal half (cYFP) of yellow fluorescence protein (Arabidopsis, UniProt Q8L7U5 1-881); assay: BiFC in tobacco cells
T2 construct: BiFC construct; also called BSL1-cYFP; not shown: C-terminal half of YFP (cYFP)
T2 sequence: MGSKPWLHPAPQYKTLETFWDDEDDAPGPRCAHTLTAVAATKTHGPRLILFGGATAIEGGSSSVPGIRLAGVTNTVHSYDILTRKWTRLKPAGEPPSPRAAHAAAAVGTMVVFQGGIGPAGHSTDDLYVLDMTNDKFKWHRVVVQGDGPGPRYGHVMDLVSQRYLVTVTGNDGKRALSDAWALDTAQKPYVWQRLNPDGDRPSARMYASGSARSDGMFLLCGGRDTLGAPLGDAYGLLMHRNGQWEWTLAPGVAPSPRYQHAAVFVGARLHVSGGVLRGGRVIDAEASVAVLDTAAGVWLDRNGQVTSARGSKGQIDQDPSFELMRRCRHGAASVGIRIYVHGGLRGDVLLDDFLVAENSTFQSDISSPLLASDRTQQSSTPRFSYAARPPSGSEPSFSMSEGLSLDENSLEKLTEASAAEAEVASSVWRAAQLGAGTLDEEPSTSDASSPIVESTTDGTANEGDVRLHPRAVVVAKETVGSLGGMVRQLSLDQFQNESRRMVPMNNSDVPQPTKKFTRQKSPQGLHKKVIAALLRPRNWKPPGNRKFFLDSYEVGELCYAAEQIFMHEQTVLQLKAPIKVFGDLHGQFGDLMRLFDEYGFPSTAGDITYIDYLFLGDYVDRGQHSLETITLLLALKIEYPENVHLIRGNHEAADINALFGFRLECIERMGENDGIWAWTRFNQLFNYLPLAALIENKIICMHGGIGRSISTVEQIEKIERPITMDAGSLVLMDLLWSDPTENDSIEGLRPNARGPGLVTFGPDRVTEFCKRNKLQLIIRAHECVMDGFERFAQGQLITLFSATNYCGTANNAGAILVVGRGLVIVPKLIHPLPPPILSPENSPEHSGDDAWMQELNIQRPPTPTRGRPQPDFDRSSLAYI
Text: (§1) GST, GST-BIN2 and GST-bin2-1 were separated by SDS-PAGE and blotted onto nitrocellulose membrane. The blot was probed sequentially with MBP-BSU1 and anti-MBP antibody (upper) and then stained with Ponceau S (lower). […] The protein extracts of the tobacco leaves transiently transformed with the indicated constructs were immunoprecipitated with anti-GFP antibody, and the immunoblot was probed with anti-myc and anti-GFP antibody. […] The indicated constructs were transformed into tobacco leaf epidermal cells. Bright spots in BIN2-nYFP+cYFP are chloroplast auto-fluorescence. […] Arabidopsis plants (F1) expressing BSU1-YFP or co-expressing BSU1-YFP and BIN2-myc were grown on the medium containing BR biosynthetic inhibitor, brassinazole (BRZ), for 10 days. The plants were treated with 10 μM MG-132 for 1 hr and then with 0.2 μM BL or mock solution for 15 min. Total protein extracts were immunoprecipitated with anti-myc antibodies, and the immunoblot was probed with anti-GFP and anti-myc antibodies.
(§2) Transformation by Agrobacterium infiltration, observations of subcellular localization and BiFC signal in tobacco or Arabidopsis were performed as described previously 5. Fluorescence of YFP was visualized by using a spinning-disk confocal microscope (Leica Microsystems, Heerbruag, Germany).

[4] = target: T3, BSU1 fused to C-terminal half (cYFP) of YFP (Arabidopsis, UniProt Q9LR78 1-793); assay: BiFC in tobacco cells
T3 construct: BiFC construct in tobacco leaf epidermal cells, with BIN2-nYFP or bin2-1-nYFP; also called BSU1-cYFP; not shown: C-terminal half of YFP (cYFP)
Text: as §1, §2

T1 sequence (Q9LR78 whole entry, the tested form may be a part): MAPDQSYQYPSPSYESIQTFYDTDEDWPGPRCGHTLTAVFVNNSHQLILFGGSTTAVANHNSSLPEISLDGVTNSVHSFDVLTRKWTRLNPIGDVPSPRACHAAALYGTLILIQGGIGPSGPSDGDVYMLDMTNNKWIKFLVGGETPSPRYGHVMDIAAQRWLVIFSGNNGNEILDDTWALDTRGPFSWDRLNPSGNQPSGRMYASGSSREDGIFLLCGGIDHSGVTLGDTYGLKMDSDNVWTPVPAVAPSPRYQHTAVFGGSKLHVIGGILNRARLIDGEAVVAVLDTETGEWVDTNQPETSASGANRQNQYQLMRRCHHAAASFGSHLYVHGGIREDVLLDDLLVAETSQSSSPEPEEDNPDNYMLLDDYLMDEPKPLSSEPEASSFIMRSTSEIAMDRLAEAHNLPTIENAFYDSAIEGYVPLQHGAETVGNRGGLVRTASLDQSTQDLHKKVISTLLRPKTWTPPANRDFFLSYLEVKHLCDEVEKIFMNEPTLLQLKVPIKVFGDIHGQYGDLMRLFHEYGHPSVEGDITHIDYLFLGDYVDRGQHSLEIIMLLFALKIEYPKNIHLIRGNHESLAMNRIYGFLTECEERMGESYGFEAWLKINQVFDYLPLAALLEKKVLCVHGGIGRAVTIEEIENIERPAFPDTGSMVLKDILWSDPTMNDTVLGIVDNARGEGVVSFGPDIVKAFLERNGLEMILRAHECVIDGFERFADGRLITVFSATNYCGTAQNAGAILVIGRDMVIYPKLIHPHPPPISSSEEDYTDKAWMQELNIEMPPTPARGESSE
T3 sequence (Q9LR78 whole entry, the tested form may be a part): as above

Binder | binding result [1] | binding result [2] | further results
B1 | no binding |  | 
B2 | no binding |  | 
B3 |  | binds | 
B4 |  |  | binding result [3]: binds; binding result [4]: binds
B5 |  | binds | 

— patent US20120322150A1 (CARNEGIE INSTITUTION OF WASHINGTON, published 2012)
